Source: article PMC7229167, “Atypical chemokine receptor ACKR2-V41A has decreased CCL2 binding, scavenging, and activation, supporting sustained inflammation and increased Alzheimer’s disease risk” (Scientific Reports, 2020)
Substitutions are numbered along the chain they refer to.

Legend:
[1] = molecular target: T1, Atypical chemokine receptor 2, wild type (ACKR2-WT) (human, UniProt O00590 1-384); experiment: flow cytometry on cells; competition: transfected CHO-k1 cells incubated with unconjugated chemokine at 37 °C for 45 minutes, then stained with anti-human ACKR2 polyclonal IgG and PE secondary; blockage = 100 minus percent of ACKR2-positive cells; titration with non-linear analysis for Kd; settings: one partner purified
T1 construct: Atypical chemokine receptor 2 (ACKR2), human, wild type allele, expressed on the surface of CHO-k1 cells; also called CCBP-WT; source: CHO-k1 cells, transfected (lipofectamine), G418 selected, enriched with anti-PE MicroBeads; on cells
T1 sequence (looked up): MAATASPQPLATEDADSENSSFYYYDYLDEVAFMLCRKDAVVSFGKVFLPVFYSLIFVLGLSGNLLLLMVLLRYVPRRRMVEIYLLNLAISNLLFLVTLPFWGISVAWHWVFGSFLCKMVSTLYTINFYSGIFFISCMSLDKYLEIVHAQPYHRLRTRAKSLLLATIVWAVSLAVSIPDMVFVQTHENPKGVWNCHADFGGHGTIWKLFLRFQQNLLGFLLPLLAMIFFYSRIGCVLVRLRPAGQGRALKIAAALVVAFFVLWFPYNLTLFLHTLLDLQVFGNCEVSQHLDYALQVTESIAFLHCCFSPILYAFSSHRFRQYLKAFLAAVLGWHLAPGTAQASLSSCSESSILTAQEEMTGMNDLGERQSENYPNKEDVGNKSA

[2] = molecular target: T2, Atypical chemokine receptor 2 variant V41A (ACKR2-V41A; rs2228467) (human, UniProt O00590 1-384, V41A); experiment: as above; settings: one partner purified
T2 construct: Atypical chemokine receptor 2 (ACKR2), human, natural variant V41A (rs2228467), expressed on the surface of CHO-k1 cells; also called ACRK2-V41A; source: CHO-k1 cells, transfected (lipofectamine), G418 selected, enriched with anti-PE MicroBeads; on cells
T2 sequence (looked up): T1 sequence (looked up) with V41A

Kd [1]: 600 nM
Kd [2]: 2030 nM
B1: Chemokine ligand 4 (CCL4), unconjugated (ligand, UniProt P13236 24-92, looked up)
chain: APMGSDPPTACCFSYTARKLPRNFVVDYYETSSLCSQPAVVFQTKRSKQVCADPSESWVQEYVYDLELN
notes: Chemokine ligand 4 (CCL4), unconjugated; also called unconjugated CCL4; source: bought: PEPROTECH, Cat #300-.9
